Values quoted from earlier work as cited in article PMC4117426.
Where two headings read alike, the source gives them in different places.

Experiments:
[1] = molecular target: FtsZ tail peptide C-terminal tail (Escherichia coli) (UniProt P0A9A6)
[2] = molecular target: FtsZ tail peptide C-terminal tail (Escherichia coli) (UniProt P0A9A6); remark: listed apart in the source

FtsA, sequence (P0ABH0 whole entry): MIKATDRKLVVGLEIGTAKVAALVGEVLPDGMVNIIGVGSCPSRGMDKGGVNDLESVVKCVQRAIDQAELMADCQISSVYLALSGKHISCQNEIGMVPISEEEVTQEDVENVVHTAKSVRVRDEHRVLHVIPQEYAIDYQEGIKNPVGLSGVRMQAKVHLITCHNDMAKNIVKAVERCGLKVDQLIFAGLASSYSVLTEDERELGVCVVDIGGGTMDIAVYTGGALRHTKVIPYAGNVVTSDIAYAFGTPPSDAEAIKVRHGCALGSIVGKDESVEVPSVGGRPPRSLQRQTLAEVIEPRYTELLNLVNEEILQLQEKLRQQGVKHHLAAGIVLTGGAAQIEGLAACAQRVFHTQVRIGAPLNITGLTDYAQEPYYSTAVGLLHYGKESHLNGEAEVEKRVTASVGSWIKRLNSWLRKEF

Substance | Kd [1] | Kd [2]
FtsA (from UniProt P0ABH0) | 50 µM | –
ZipA (from UniProt P77173) | – | 20 µM
